# Biological target: T1, CD3ε homodimer protein (human, UniProt P07766 23-126, limits assumed)
# T1 construct: also called CD3 (CD3ε)
# Experiment: SPR Biacore T200, CD3ε homodimer on chip;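 further: Light-chain single-residue variant antibodies injected over amine-coupled CD3ε homodimer on a CM4 chip at 25 °C, bound amount divided by that of the GLS3000-containing antibody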
# Experimental: Each one-amino acid altered form constructed, expressed, and purified in the paragraph (6-2) was evaluated using Biacore T200 (GE Healthcare Japan Corp.). An appropriate amount of CD3ε homodimer protein was immobilized onto Sensor chip CM4 (GE Healthcare Japan Corp.) by the amine coupling method. Then, the antibody having an appropriate concentration was injected thereto as an analyte and allowed to interact with the CD3ε homodimer protein on the sensor chip. Then, the sensor chip was regenerated by the injection of 10 mmol/L glycine-HCl (pH 1.5). The assay was conducted at 25° C., and HBS-EP+ (GE Healthcare Japan Corp.) was used as a running buffer. […] Each parameter was calculated using Biacore T200 Evaluation Software (GE Healthcare Japan Corp.).
# Specifically, when the amount of the GLS3000-containing antibody bound was defined as X and the amount of the L chain one-amino acid altered form bound was defined as Y, a value of Z (ratio of amounts bound)=Y/X was used.
# T1 sequence (P07766 23-126 limits assumed): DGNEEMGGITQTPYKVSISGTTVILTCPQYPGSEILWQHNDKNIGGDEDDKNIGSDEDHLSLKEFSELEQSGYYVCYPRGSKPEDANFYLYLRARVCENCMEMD
row,ratio of amount bound vs unaltered GLS3000,Binder
1,0.92,"GLS3000 S56G one-arm antibody (antibody, human IgG1, kappa, L234A L235A, N297A, name in Kabat numbering) heavy: QVQLVESGGGVVQPGRSLRLSCAASGFTFSNAWMHWVRQAPGKGLEWVAQIKAKSNNYATYYAESVKGRFTISRDDSKNSLYLQMNSLKTEDTAVYYCRYVHYGAYYGVDAWGQGTTVTVSSASTKGPSVFPLAPSSKSTSGGTAALGCLVKDYFPEPVTVSWNSGALTSGVHTFPAVLQSSGLYSLSSVVTVPSSSLGTQTYICNVNHKPSNTKVDKKVEPKSCDKTHTCPPCPAPEAAGGPSVFLFPPKPKDTLMISRTPEVTCVVVDVSHEDPEVKFNWYVDGVEVHNAKTKPREEQYASTYRVVSVLTVLHQDWLNGKEYKCKVSNKALPAPIEKTISKAKGQPREPQVYTLPPSRCELTKNQVSLSCAVKGFYPSDIAVEWESNGQPENNYKTTPPVLDSDGSFFLVSKLTVDKSRWQQGNVFSCSVMHEALHNHYTQKSLSLSPDYKDDDDK EPKSSDKTHTCPPCPAPELLGGPSVFLFPPKPKDTLMISRTPEVTCVVVDVSHEDPEVKFNWYVDGVEVHNAKTKPREEQYNSTYRVVSVLTVLHQDWLNGKEYKCKVSNKALPAPIEKTISKAKGQPREPQVCTLPPSRDELTKNQVSLWCLVKGFYPSDIAVEWESNGQPENNYKTTPPVLDSDGSFFLYSKLTVDKSRWQQGNVFSCSVMHEALHNRYTQKSLSLSP light: DIVMTQSPLSLPVTPGEPASISCRSSQSLVHSNRNTYLHWYQQKPGQAPRLLIYKVSNRFGGVPDRFSGSGSGTDFTLKISRVEAEDVGVYYCGQGTQVPYTFGQGTKLEIKRTVAAPSVFIFPPSDEQLKSGTASVVCLLNNFYPREAKVQWKVDNALQSGNSQESVTEQDSKDSTYSLSSTLTLSKADYEKHKVYACEVTHQGLSSPVTKSFNRGEC"
2,1.05,"GLS3000 S56M one-arm antibody (antibody, human IgG1, kappa, L234A L235A, N297A, name in Kabat numbering) heavy: QVQLVESGGGVVQPGRSLRLSCAASGFTFSNAWMHWVRQAPGKGLEWVAQIKAKSNNYATYYAESVKGRFTISRDDSKNSLYLQMNSLKTEDTAVYYCRYVHYGAYYGVDAWGQGTTVTVSSASTKGPSVFPLAPSSKSTSGGTAALGCLVKDYFPEPVTVSWNSGALTSGVHTFPAVLQSSGLYSLSSVVTVPSSSLGTQTYICNVNHKPSNTKVDKKVEPKSCDKTHTCPPCPAPEAAGGPSVFLFPPKPKDTLMISRTPEVTCVVVDVSHEDPEVKFNWYVDGVEVHNAKTKPREEQYASTYRVVSVLTVLHQDWLNGKEYKCKVSNKALPAPIEKTISKAKGQPREPQVYTLPPSRCELTKNQVSLSCAVKGFYPSDIAVEWESNGQPENNYKTTPPVLDSDGSFFLVSKLTVDKSRWQQGNVFSCSVMHEALHNHYTQKSLSLSPDYKDDDDK EPKSSDKTHTCPPCPAPELLGGPSVFLFPPKPKDTLMISRTPEVTCVVVDVSHEDPEVKFNWYVDGVEVHNAKTKPREEQYNSTYRVVSVLTVLHQDWLNGKEYKCKVSNKALPAPIEKTISKAKGQPREPQVCTLPPSRDELTKNQVSLWCLVKGFYPSDIAVEWESNGQPENNYKTTPPVLDSDGSFFLYSKLTVDKSRWQQGNVFSCSVMHEALHNRYTQKSLSLSP light: DIVMTQSPLSLPVTPGEPASISCRSSQSLVHSNRNTYLHWYQQKPGQAPRLLIYKVSNRFMGVPDRFSGSGSGTDFTLKISRVEAEDVGVYYCGQGTQVPYTFGQGTKLEIKRTVAAPSVFIFPPSDEQLKSGTASVVCLLNNFYPREAKVQWKVDNALQSGNSQESVTEQDSKDSTYSLSSTLTLSKADYEKHKVYACEVTHQGLSSPVTKSFNRGEC"
3,1.02,"GLS3000 S56L one-arm antibody (antibody, human IgG1, kappa, L234A L235A, N297A, name in Kabat numbering) heavy: QVQLVESGGGVVQPGRSLRLSCAASGFTFSNAWMHWVRQAPGKGLEWVAQIKAKSNNYATYYAESVKGRFTISRDDSKNSLYLQMNSLKTEDTAVYYCRYVHYGAYYGVDAWGQGTTVTVSSASTKGPSVFPLAPSSKSTSGGTAALGCLVKDYFPEPVTVSWNSGALTSGVHTFPAVLQSSGLYSLSSVVTVPSSSLGTQTYICNVNHKPSNTKVDKKVEPKSCDKTHTCPPCPAPEAAGGPSVFLFPPKPKDTLMISRTPEVTCVVVDVSHEDPEVKFNWYVDGVEVHNAKTKPREEQYASTYRVVSVLTVLHQDWLNGKEYKCKVSNKALPAPIEKTISKAKGQPREPQVYTLPPSRCELTKNQVSLSCAVKGFYPSDIAVEWESNGQPENNYKTTPPVLDSDGSFFLVSKLTVDKSRWQQGNVFSCSVMHEALHNHYTQKSLSLSPDYKDDDDK EPKSSDKTHTCPPCPAPELLGGPSVFLFPPKPKDTLMISRTPEVTCVVVDVSHEDPEVKFNWYVDGVEVHNAKTKPREEQYNSTYRVVSVLTVLHQDWLNGKEYKCKVSNKALPAPIEKTISKAKGQPREPQVCTLPPSRDELTKNQVSLWCLVKGFYPSDIAVEWESNGQPENNYKTTPPVLDSDGSFFLYSKLTVDKSRWQQGNVFSCSVMHEALHNRYTQKSLSLSP light: DIVMTQSPLSLPVTPGEPASISCRSSQSLVHSNRNTYLHWYQQKPGQAPRLLIYKVSNRFLGVPDRFSGSGSGTDFTLKISRVEAEDVGVYYCGQGTQVPYTFGQGTKLEIKRTVAAPSVFIFPPSDEQLKSGTASVVCLLNNFYPREAKVQWKVDNALQSGNSQESVTEQDSKDSTYSLSSTLTLSKADYEKHKVYACEVTHQGLSSPVTKSFNRGEC"

# The next lines start with the binder.
row,Binder,ratio of amount bound vs unaltered GLS3000
1,"GLS3000 S56H one-arm antibody (antibody, human IgG1, kappa, L234A L235A, N297A, name in Kabat numbering) heavy: QVQLVESGGGVVQPGRSLRLSCAASGFTFSNAWMHWVRQAPGKGLEWVAQIKAKSNNYATYYAESVKGRFTISRDDSKNSLYLQMNSLKTEDTAVYYCRYVHYGAYYGVDAWGQGTTVTVSSASTKGPSVFPLAPSSKSTSGGTAALGCLVKDYFPEPVTVSWNSGALTSGVHTFPAVLQSSGLYSLSSVVTVPSSSLGTQTYICNVNHKPSNTKVDKKVEPKSCDKTHTCPPCPAPEAAGGPSVFLFPPKPKDTLMISRTPEVTCVVVDVSHEDPEVKFNWYVDGVEVHNAKTKPREEQYASTYRVVSVLTVLHQDWLNGKEYKCKVSNKALPAPIEKTISKAKGQPREPQVYTLPPSRCELTKNQVSLSCAVKGFYPSDIAVEWESNGQPENNYKTTPPVLDSDGSFFLVSKLTVDKSRWQQGNVFSCSVMHEALHNHYTQKSLSLSPDYKDDDDK EPKSSDKTHTCPPCPAPELLGGPSVFLFPPKPKDTLMISRTPEVTCVVVDVSHEDPEVKFNWYVDGVEVHNAKTKPREEQYNSTYRVVSVLTVLHQDWLNGKEYKCKVSNKALPAPIEKTISKAKGQPREPQVCTLPPSRDELTKNQVSLWCLVKGFYPSDIAVEWESNGQPENNYKTTPPVLDSDGSFFLYSKLTVDKSRWQQGNVFSCSVMHEALHNRYTQKSLSLSP light: DIVMTQSPLSLPVTPGEPASISCRSSQSLVHSNRNTYLHWYQQKPGQAPRLLIYKVSNRFHGVPDRFSGSGSGTDFTLKISRVEAEDVGVYYCGQGTQVPYTFGQGTKLEIKRTVAAPSVFIFPPSDEQLKSGTASVVCLLNNFYPREAKVQWKVDNALQSGNSQESVTEQDSKDSTYSLSSTLTLSKADYEKHKVYACEVTHQGLSSPVTKSFNRGEC",1.05
2,"GLS3000 S56I one-arm antibody (antibody, human IgG1, kappa, L234A L235A, N297A, name in Kabat numbering) heavy: QVQLVESGGGVVQPGRSLRLSCAASGFTFSNAWMHWVRQAPGKGLEWVAQIKAKSNNYATYYAESVKGRFTISRDDSKNSLYLQMNSLKTEDTAVYYCRYVHYGAYYGVDAWGQGTTVTVSSASTKGPSVFPLAPSSKSTSGGTAALGCLVKDYFPEPVTVSWNSGALTSGVHTFPAVLQSSGLYSLSSVVTVPSSSLGTQTYICNVNHKPSNTKVDKKVEPKSCDKTHTCPPCPAPEAAGGPSVFLFPPKPKDTLMISRTPEVTCVVVDVSHEDPEVKFNWYVDGVEVHNAKTKPREEQYASTYRVVSVLTVLHQDWLNGKEYKCKVSNKALPAPIEKTISKAKGQPREPQVYTLPPSRCELTKNQVSLSCAVKGFYPSDIAVEWESNGQPENNYKTTPPVLDSDGSFFLVSKLTVDKSRWQQGNVFSCSVMHEALHNHYTQKSLSLSPDYKDDDDK EPKSSDKTHTCPPCPAPELLGGPSVFLFPPKPKDTLMISRTPEVTCVVVDVSHEDPEVKFNWYVDGVEVHNAKTKPREEQYNSTYRVVSVLTVLHQDWLNGKEYKCKVSNKALPAPIEKTISKAKGQPREPQVCTLPPSRDELTKNQVSLWCLVKGFYPSDIAVEWESNGQPENNYKTTPPVLDSDGSFFLYSKLTVDKSRWQQGNVFSCSVMHEALHNRYTQKSLSLSP light: DIVMTQSPLSLPVTPGEPASISCRSSQSLVHSNRNTYLHWYQQKPGQAPRLLIYKVSNRFIGVPDRFSGSGSGTDFTLKISRVEAEDVGVYYCGQGTQVPYTFGQGTKLEIKRTVAAPSVFIFPPSDEQLKSGTASVVCLLNNFYPREAKVQWKVDNALQSGNSQESVTEQDSKDSTYSLSSTLTLSKADYEKHKVYACEVTHQGLSSPVTKSFNRGEC",0.99
3,"GLS3000 S56K one-arm antibody (antibody, human IgG1, kappa, L234A L235A, N297A, name in Kabat numbering) heavy: QVQLVESGGGVVQPGRSLRLSCAASGFTFSNAWMHWVRQAPGKGLEWVAQIKAKSNNYATYYAESVKGRFTISRDDSKNSLYLQMNSLKTEDTAVYYCRYVHYGAYYGVDAWGQGTTVTVSSASTKGPSVFPLAPSSKSTSGGTAALGCLVKDYFPEPVTVSWNSGALTSGVHTFPAVLQSSGLYSLSSVVTVPSSSLGTQTYICNVNHKPSNTKVDKKVEPKSCDKTHTCPPCPAPEAAGGPSVFLFPPKPKDTLMISRTPEVTCVVVDVSHEDPEVKFNWYVDGVEVHNAKTKPREEQYASTYRVVSVLTVLHQDWLNGKEYKCKVSNKALPAPIEKTISKAKGQPREPQVYTLPPSRCELTKNQVSLSCAVKGFYPSDIAVEWESNGQPENNYKTTPPVLDSDGSFFLVSKLTVDKSRWQQGNVFSCSVMHEALHNHYTQKSLSLSPDYKDDDDK EPKSSDKTHTCPPCPAPELLGGPSVFLFPPKPKDTLMISRTPEVTCVVVDVSHEDPEVKFNWYVDGVEVHNAKTKPREEQYNSTYRVVSVLTVLHQDWLNGKEYKCKVSNKALPAPIEKTISKAKGQPREPQVCTLPPSRDELTKNQVSLWCLVKGFYPSDIAVEWESNGQPENNYKTTPPVLDSDGSFFLYSKLTVDKSRWQQGNVFSCSVMHEALHNRYTQKSLSLSP light: DIVMTQSPLSLPVTPGEPASISCRSSQSLVHSNRNTYLHWYQQKPGQAPRLLIYKVSNRFKGVPDRFSGSGSGTDFTLKISRVEAEDVGVYYCGQGTQVPYTFGQGTKLEIKRTVAAPSVFIFPPSDEQLKSGTASVVCLLNNFYPREAKVQWKVDNALQSGNSQESVTEQDSKDSTYSLSSTLTLSKADYEKHKVYACEVTHQGLSSPVTKSFNRGEC",1.46
